Source: US6689362

Experiments:
CD7 antigen (human) [1] = target: CD7 antigen (human) (UniProt P09564); assay: indirect immunofluorescence with FITC goat anti-mouse IgG on MOLT-3 cells, 10 µg/mL (50 nM) TXU-PAP
CD7 antigen (human) [2] = target: CD7 antigen (human) (UniProt P09564); assay: cell-based or functional assay
CD7 antigen (human) [3] = target: CD7 antigen (human) (UniProt P09564); assay: indirect immunofluorescence, flow cytometry on Jurkat cells
CD7 antigen (human) [4] = target: CD7 antigen (human) (UniProt P09564); assay: indirect immunofluorescence, flow cytometry on MOLT-3 cells

Sequence of TXU-7-PAP immunotoxin (P10297 23-285): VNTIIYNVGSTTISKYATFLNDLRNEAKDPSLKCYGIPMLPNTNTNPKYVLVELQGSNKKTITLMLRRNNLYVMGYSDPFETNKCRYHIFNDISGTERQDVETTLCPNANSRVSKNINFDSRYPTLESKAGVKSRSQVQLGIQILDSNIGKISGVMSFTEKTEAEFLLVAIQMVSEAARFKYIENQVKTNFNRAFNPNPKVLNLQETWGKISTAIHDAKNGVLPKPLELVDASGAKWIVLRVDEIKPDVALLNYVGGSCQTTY

percent of cells stained (CD7 antigen (human) [3]) [%]	percent of cells stained (CD7 antigen (human) [4]) [%]	Substance	percent of cells positive for cell-surface bound immunotoxin (CD7 antigen (human) [1]) [%]	log kill of clonogenic MOLT-3 blasts, serial dilution clonogenic assay, at 1 µg/mL (=5 nM) (CD7 antigen (human) [2]) [logs]
		TXU-7-PAP immunotoxin (from UniProt P10297 23-285)	98	2.8 to 3.7
96	99	monoclonal antibody TXU-7		
